Experimental data published in PMC5040827.

The substances below were run against GL_(CDR3rev4) (assay: SPR). Details: average of two or three experiments.
“BG505 T332N gp120 3MUT (T135A; T139I; one further mutation not printed)” was tested, and the Kd was greater than 28 µM.
Work on “BG505 T332N gp120 5MUT (V134Y; N136P; I138L; D140N; one further mutation not printed)” yielded a Kd greater than 34 µM.
“BG505 T332N gp120 7MUT (T135A; T139I; V134Y; N136P; I138L; D140N; one further mutation not printed)” was tested, and the Kd was greater than 36 µM.
In the case of “BG505 T332N gp120 10MUT (T135A; T139I; V134Y; N136P; I138L; D140N; N137F; T320F; Q328M; one further mutation not printed)”, the Kd is reported as greater than 150 µM.

The substances below were run against MD39-10MUT (assay: SPR). Details: not given.
With PGDM1400 the Kd was 6 nM.
PGT121 gave a Kd of 0.8 nM.
With PGT128 the Kd was 3 nM.
Substance PGT151 has a Kd of 35 nM.
VRC01 was tested, and the Kd was 142 nM.

These substances were tested against PGT121 (assay: SPR). Details: average of two or three experiments.
With “BG505 T332N gp120 5MUT (V134Y; N136P; I138L; D140N; one further mutation not printed)” the Kd was 5.7 nM.
